The test system of series [1] is MS2 coat protein. Description: apparent KD of MS2 coat protein, switch OFF state (with FMN for OFF switches, without FMN for ON switches); designed switch direction (-1 OFF switch, 1 ON switch): 1; higher = weaker reporter binding. The note with it: FMN input: 0 or 200 uM; Eterna round: R93 (includes R88 designs). In a few lines: (§1)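 Normalised binding curves from single clusters were fitted, and the median fit for each design is given as apparent KD. The clusters held designed RNA switches transcribed on-chip from Illumina sequencing clusters. These were titrated with SNAP-549-labelled MS2 coat protein (twofold steps from 0.7 or 1.5 nM to 3 µM, 0.8–1.5 h to 10–20 min per step) in 100 mM Tris-HCl pH 7.5, 80 mM KCl, 4 mM MgCl2, without or with constant ligand.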

Series [2] concerns MS2 coat protein. Description: apparent KD of MS2 coat protein, switch ON state; designed switch direction (-1 OFF switch, 1 ON switch): 1; higher = weaker reporter binding. To be noted: FMN input: 0 or 200 uM; Eterna round: R93 (includes R88 designs). In a few lines:
as §1

Regarding “AAAAAACAUGAGGAUCACCCAUGUCGAAAGACAUGAGGAUAUGUACAGACUUCGGUCUGUACAGAAGGCAUGUCAA [SS1 - 1020]”, the “apparent KD of MS2 coat protein” value in the series with MS2 coat protein [1] was determined as 107 nM; in the series on MS2 coat protein [2], 19.4 nM.
For “AAAAAAAAAACAUAGGAUAUCCGGGCCGGGACAUGAGGAUCACCCAUGUCAAAAAAAAUUGGCCCGGAGAAGGAUGAAAAAAAAAA [SAmeState2-II]”, in that order: 14 nM and 11.5 nM.
For “AUAAAACAUGAGGAUCACCCAUGUAAAAAUAUGGGAGGAUAUGCGAAAUAAAAUAAAUAAGCAGAAGGCCUAAAAA [SS! MT 19]”, in that order: 174 nM and 11.9 nM.
The corresponding values for “AAAGACGUGGCGUAGGAUAUACUAAUAUUCACAUGAGGAUCACCCAUGUUCAUAUAUAUGAACGAGUAGAAGGACGACGAAAAAA [SameState2 Malc#1]” are 120 nM and 59.3 nM.
On to “AAGAAACAUGAGGAUCACCCAUGUAAGAUAUACACAGGAUAUGCGAAAAGAAACAAAGAAGCAGAAGGGUGGAAAA [75%, Ex sub1, 10]”, for which the “apparent KD of MS2 coat protein” value with MS2 coat protein [1] stood at 33.4 nM; in the series with MS2 coat protein [2], 14.9 nM.
The corresponding values for “GAAAAACAUGAGGAUCACCCAUGUGAGAAUAUGGGAGGAUAUACAAGGACGAGAGUCAAGGUAGAAGGCCUAAAAG [Mat - Same State 1 - Eli mod - 29]” are 247 nM and 41.7 nM.
For “UACACGCGGGCGCAGGAUAUGUCGCUGGUGACAUGAGGAUCACCCAUGUAUACCAUUGCGGUUGAGCAGAAGGGUGAGAAGCGUG [Raanlaza]”, in that order: 56.3 nM and 20.4 nM.
For “AACAAUCUAUCUGAGGAUAUCAUGAAAAAGACAUGAGGAUCACCCAUGUACCAGGAAACUGGUUAUGAGAAGGCAGAUAGAUUGA [SS2: 1116]”, in that order: 14.4 nM and 9.32 nM.
With “AGGAGACAUGAGGAUCACCCAUGUAGAAGGAUGGGAGGAUAUACAAAGACGAGAGUCAGAGUAGAAGGCCUAGGGA [salish99-ss1-183(!)]”, the “apparent KD of MS2 coat protein” value in the series on MS2 coat protein [1] worked out at 54.1 nM; in the series on MS2 coat protein [2], 24.2 nM.
The corresponding values for “AGGAAACAUGAGGAUCACCCAUGUAAAAAAGUGGGAGGAUAUGCGAAAAGAAAAAGAAAAGCAGAAGGCCUAAGAA [62%, Something completely different, 6]” are 42.7 nM and 21.9 nM.
With “CAUCAUGCGCCUAAGGAUAUGUCUCACAAGACAUGAGGAUCACCCAUGUAGCCAAAAUAAACGAUGCAGAAGGUGGAGCACAUGC [Atrexe]”, the “apparent KD of MS2 coat protein” value in the series with MS2 coat protein [1] amounted to 602 nM; in the series on MS2 coat protein [2] it was 271 nM.
The corresponding values for “CGGAGACAUGAGGAUCACCCAUGUGAGAAGAGGCGAGGAUAUCGAAAGAAAGAAGAGAAACGAGAAGGCGCGAGUG [salish99-SS1-074]” are 32.9 nM and 21.9 nM.
For “GUGUAUAGCCUCGAGGAUAUCCUGUAAUGCACAUGAGGAUCACCCAUGUAUGAGCGAGUUUUUUGGGAGAAGGCGAGUUAUCGGU [JR_SS002_Sub1709]”, in that order: 24.2 nM and 12.9 nM.
For “UGAAGACAUGAGGAUCACCCAUGUGGGAUUAUGGGAGGAUAUACAAAGACGAGAGUCAGAGUAGAAGGCCUAGGAC [salish99-ss1-119(!)]”, in that order: 72.9 nM and 32.2 nM.
Regarding “GGAAAUAAAAGAGAGGAUAUCCAAAGGAAAACAUGAGGAUCACCCAUGUAAAAGGAAGGAAAGUGGGAGAAGGCUCAAAAUAAGG [salish99-ss2-008]”, the “apparent KD of MS2 coat protein” value in the series on MS2 coat protein [1] stood at 49.9 nM; in the series with MS2 coat protein [2], 29.6 nM.
Regarding “AGGAAACAUGAGGAUCACCCAUGUAAAAAAAUGGGAGGAUAUCCGCAUUAAUUAAAUGAAGGAGAAGGCCUAAAAA [71%, Same state of confusion2, 5]”, the entries for the “apparent KD of MS2 coat protein” value in the series on MS2 coat protein [1] and in the series with MS2 coat protein [2] were 63.1 nM and 21.6 nM, respectively.
For “AAAAAACAUGAGGAUCACCCAUGUGAGAACACGGGAGGAUAUACGAAGACGAAAGUCGAAGUAGAAGGCCUAAAAA [Garnet 82]”, in that order: 75.6 nM and 21.2 nM.
Consider “AAACCACAUGAGGAUCACCCAUGUAGAAAUAUGGGAGGAUAUACAAAGACGAAAGUCAAAGUAGAAGGCCUAAAAG [77%, Mat - Mod of Eli, 5]”, for which the “apparent KD of MS2 coat protein” value in the series with MS2 coat protein [1] was 97.5 nM; in the series with MS2 coat protein [2], 31.4 nM.
For “GACCGACAUGAGGAUCACCCAUGUCGGAAAAGGCAAGGAUAUGGGCGGUACCAAUUUCGGUCAGAAGGUGCAAAAG [Aatisri]”, in that order: 14.6 nM and 12.4 nM.
For “AGGAAACAUGAGGAUCACCCAUGUAAAAAUAUGGGAGGAUAUACGAAGACGAAAGAAAAAGUAGAAGGCCUAAAAG [Garnet 14]”, in that order: 155 nM and 63.6 nM.

The values above are taken from the supplement of paper PMC9170038.
